Among the data in paper PMC5063806, “Data for peptide-binding assay with oriented immobilization of GRP78 in Biacore” (Data in Brief, 2016) are Kd values, retold here.

For the assay, the target named is T1, human GRP78, N-His-tagged (human, UniProt P11021 19-654).
T1 construct: GRP78, human; 6-His tag at the N-terminus; also called N-His-tagged GRP78; not shown: His6, N-terminal, kept
Briefly: SPR; modified protocol, Biacore X: N-His-tagged GRP78 covalently immobilised (EDC/NHS, Ni2+ orientation, about 5000~6000 RU) on chip NTA; running buffer HBS-P pH 7.4 with 1 mM glycine; L-peptide 6.25-100 uM; both peptides at 50 uM in Fig. 3; fit with BIAevaluation 4.1, default settings. Particulars: both partners purified. On the technique in general: Surface plasmon resonance follows binding to a sensor surface in real time, without labels.

As a reminder, the Kd is the free concentration of one partner at which half of the binding sites on the other are occupied at equilibrium, for simple one-to-one binding.

T1 sequence (P11021 19-654): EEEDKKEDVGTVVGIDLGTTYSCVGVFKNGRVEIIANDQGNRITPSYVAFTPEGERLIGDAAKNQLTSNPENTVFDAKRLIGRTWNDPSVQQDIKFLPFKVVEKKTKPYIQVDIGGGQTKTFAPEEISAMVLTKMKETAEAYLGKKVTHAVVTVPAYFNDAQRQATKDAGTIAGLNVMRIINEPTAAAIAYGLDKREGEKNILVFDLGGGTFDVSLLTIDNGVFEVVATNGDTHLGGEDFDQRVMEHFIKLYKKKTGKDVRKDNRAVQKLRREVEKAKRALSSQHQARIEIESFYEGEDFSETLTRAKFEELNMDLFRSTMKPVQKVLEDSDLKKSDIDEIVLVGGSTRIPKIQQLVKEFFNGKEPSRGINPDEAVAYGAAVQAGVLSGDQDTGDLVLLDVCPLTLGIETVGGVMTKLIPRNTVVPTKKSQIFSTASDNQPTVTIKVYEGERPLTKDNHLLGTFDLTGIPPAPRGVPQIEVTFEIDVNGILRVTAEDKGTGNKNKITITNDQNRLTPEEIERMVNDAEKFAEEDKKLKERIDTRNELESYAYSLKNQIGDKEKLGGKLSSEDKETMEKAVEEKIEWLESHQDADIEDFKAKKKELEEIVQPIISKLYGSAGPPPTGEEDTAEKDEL

B1: L-peptide (RLLDTNRPLLPY) (peptide)
peptide: RLLDTNRPLLPY
notes: Probably synthetic
With B1, the dissociation constant Kd was ~10 µM.
